Series [1] concerns the molecule itself. The series can be described thus: crystal structure; peptide microcrystals grown by hanging drop vapor diffusion; SGMGGIT: 0.1 M phosphate/citrate pH 4.2, 40% ethanol, 5% PEG 1000; SGMGCIT: 0.2 M sodium citrate, 0.1 M HEPES pH 7.5, 20% 2-propanol; GGYAGAS: 2.5 M NaCl, 100 mM sodium acetate pH 4.5, 0.2 M lithium sulfate; data at 100 K.
Series [2] concerns the molecule itself. Nature of the series: Western blot of tissue extracts; extracts of human liver tissue (three ASH, one HCC) on a gel, blotted with anti-cytokeratin 8 (C51).
Series [3] deals with the molecule itself. Nature of the series: thioflavin T fluorescence on cooling (reversible aggregation, phase separation); same sample concentrations as the aggregation assay; held at 37 °C, cooled to 4 °C for 60 minutes, warmed back to 37 °C.
Series [4] concerns the molecule itself. The series can be described thus: X-ray fiber powder diffraction of aggregates; aggregated samples centrifuged, exchanged into water, dried between capillaries; cross-beta pattern.

Changes are numbered by the printed parent chain. Names may count otherwise.

B1: KRT8_(52–58)-G55A segment GGYAGAS (peptide)
peptide: GGYAGAS
notes: G55A is found in people with cryptogenic liver disease; Crystallised as an anti-parallel class-6 steric zipper; also called 52GGYAGAS58; source: synthetic peptide, bought: GenScript
On to B1, for which the binding result in series [1] is reported as “binds”.

B2: KRT8 in human liver tissue extracts (natural protein, human (endogenous in liver tissue), UniProt P05787 1-483, looked up)
chain: MSIRVTQKSYKVSTSGPRAFSSRSYTSGPGSRISSSSFSRVGSSNFRGGLGGGYGGASGMGGITAVTVNQSLLSPLVLEVDPNIQAVRTQEKEQIKTLNNKFASFIDKVRFLEQQNKMLETKWSLLQQQKTARSNMDNMFESYINNLRRQLETLGQEKLKLEAELGNMQGLVEDFKNKYEDEINKRTEMENEFVLIKKDVDEAYMNKVELESRLEGLTDEINFLRQLYEEEIRELQSQISDTSVVLSMDNSRSLDMDSIIAEVKAQYEDIANRSRAEAESMYQIKYEELQSLAGKHGDDLRRTKTEISEMNRNISRLQAEIEGLKGQRASLEAAIADAEQRGELAIKDANAKLSELEAALQRAKQDMARQLREYQELMNVKLALDIEIATYRKLLEGEESRLESGMQNMSIHTKTTSGYAGGLSSAYGGLTSPGLSYSLGSSFGSGAGSSSFSRTSSSRAVVVKKIETRDGKLVSESSDVLPK
notes: keratin-8 (KRT8), endogenous in human liver; monomer band at 52 KDa; also called keratin-8; cytokeratin 8; source: endogenous, extracts of human liver tissue (ASH or HCC)
The term stoichiometry N denotes the number of molecules, sites or subunits per partner or assembly. Take B2: the “stoichiometry N” value in series [2] was 2.

B3: KRT8_(1–90), head domain of keratin-8, wild type, with N-terminal mCherry (domain or fragment, human)
chain: SIRVTQKSYKVSTSGPRAFSSRSYTSGPGSRISSSSFSRVGSSNFRGGLGGGYGGASGMGGITAVTVNQSLLSPLVLEVDPNIQAVRTQ
notes: keratin-8 (KRT8), human, head domain, residues 1-90 as stated; No removal of mCherry or the His tag is described; also called WT KRT8_(1-90); wild-type KRT8; source: bacterial cultures, purified (Ni-NTA)
As for B3, the binding result in series [3] was “binds”.

B4: KRT8_(1–90) Y54H with N-terminal mCherry (domain or fragment, human, UniProt P05787 1-90, looked up)
chain: MSIRVTQKSYKVSTSGPRAFSSRSYTSGPGSRISSSSFSRVGSSNFRGGLGGGHGGASGMGGITAVTVNQSLLSPLVLEVDPNIQAVRTQ
notes: keratin-8 (KRT8), human, head domain, residues 1-90, variant Y54H; Variant found in people with cryptogenic liver disease; source: bacterial cultures, purified (Ni-NTA)
Consider B4, for which the binding result in series [4] is “binds”.

B5: KRT8_(1–90) G62C with N-terminal mCherry (domain or fragment, human, UniProt P05787 1-90, looked up)
chain: B4 chain with H54Y, G62C
notes: keratin-8 (KRT8), human, head domain, residues 1-90, variant G62C; Variant found in people with cryptogenic liver disease; source: bacterial cultures, purified (Ni-NTA)
On to B5, for which the binding result in series [3] is on record as “binds”.

B6: KRT8_(1–90) G55A with N-terminal mCherry (domain or fragment, human, UniProt P05787 1-90, looked up)
chain: B4 chain with H54Y, G55A
notes: keratin-8 (KRT8), human, head domain, residues 1-90, variant G55A; Variant found in people with cryptogenic liver disease; source: bacterial cultures, purified (Ni-NTA)
Consider B6, for which the binding result in series [4] is “binds”.

B7: FUS_(1–214), wild type, with N-terminal mCherry (domain or fragment, human, UniProt P35637 1-214, looked up)
chain: MASNDYTQQATQSYGAYPTQPGQGYSQQSSQPYGQQSYSGYSQSTDTSGYGQSSYSSYGQSQNTGYGTQSTPQGYGSTGGYGSSQSSQSSYGQQSSYPGYGQQPAPSSTSGSYGSSSQSSSYGQPQSGSYSQQPSYGGQQQSYGQQQSYNPPQGYGQQNQYNSSSGGGGGGGGGGNYGQDQSSMSSGGGSGGGYGNQDQSGGGGSGGYGQQDRG
notes: FUS, human, residues 1-214; also called wild-type FUS; source: bacterial cultures, purified (Ni-NTA)
Regarding B7, the binding result in series [3] was “binds”.

B8: KRT8_(58–64) wild-type segment SGMGGIT (peptide)
peptide: SGMGGIT
notes: keratin-8 (KRT8), human, head domain segment, residues 58-64; Crystallised as an amyloid-like fibril of stacked identical strands (anti-parallel class-7 steric zipper) with PEG 1000 and ethanol; also called 58SGMGGIT64; source: synthetic peptide, bought: GenScript
With B8, the binding result in series [1] was “binds”.

B9: KRT8_(58–64) G62C segment SGMGCIT (peptide)
peptide: SGMGCIT
notes: G62C is found in people with cryptogenic liver disease; Crystallised as a class-2 parallel steric zipper with isopropanol; also called 58SGMGCIT64; KRT8-G62C segment; source: synthetic peptide, bought: GenScript
As for B9, the binding result in series [1] was “binds”.

The record behind these values is publication PMC9205782, “Identifying amyloid-related diseases by mapping mutations in low-complexity protein domains to pathologies” (Nature Structural & Molecular Biology, 2022).
